Article PMC4137731, “C-Terminal Domain Swapping of SSB Changes the Size of the ssDNA Binding Site”

Key:
Conditions in all cases: protein: recombinant; tags: none (untagged); chain copies: 4; label: 5' 32P
KpSSB [1] = target: T1, KpSSB (Klebsiella pneumoniae subsp. pneumoniae …, UniProt A6TGW7 1-174); assay: EMSA; no band shift up to 5000 nM; 20 mM Tris-HCl pH 8.0, 100 mM NaCl, 25°C 30 min, 1.7 nM DNA, protein 0-5000 nM; native 8% PAGE in TBE at 4°C
StSSB [2] = target: T2, StSSB (Salmonella enterica serovar Typhimurium …, UniProt P0A2F6 1-176); assay: EMSA; monomer conc.; 1 complex; 20 mM Tris-HCl pH 8.0, 100 mM NaCl, 25°C 30 min, 1.7 nM DNA, protein 0-5000 nM; native 8% PAGE in TBE at 4°C
PaSSB [3] = target: T3, PaSSB (Pseudomonas aeruginosa PAO1, UniProt P40947 1-165); assay: EMSA; monomer conc.; 2 complexes; 20 mM Tris-HCl pH 8.0, 100 mM NaCl, 25°C 30 min, 1.7 nM DNA, protein 0-5000 nM; native 8% PAGE in TBE at 4°C
StSSB [4] = target: T2, StSSB; assay: as above
PaSSB [5] = target: T3, PaSSB; assay: EMSA; monomer conc.; 1 complex; 20 mM Tris-HCl pH 8.0, 100 mM NaCl, 25°C 30 min, 1.7 nM DNA, protein 0-5000 nM; native 8% PAGE in TBE at 4°C
KpSSB [6] = target: T1, KpSSB; assay: as above
KpSSB [7] = target: T1, KpSSB; assay: EMSA; monomer conc.; 2 complexes; 20 mM Tris-HCl pH 8.0, 100 mM NaCl, 25°C 30 min, 1.7 nM DNA, protein 0-5000 nM; native 8% PAGE in TBE at 4°C

Binder	apparent K (half saturation) (StSSB [2])	apparent K (half saturation) (PaSSB [5])	apparent K (half saturation) (KpSSB [6])	other results
TTTTTTTTTTTTTTTTTTTT (ssDNA) [dT20]	450 ± 80 nM	–	–	binding result (KpSSB [1]): no binding
TTTTTTTTTTTTTTT (ssDNA) [dT15]	650 ± 120 nM	–	–	–
dT65 (ssDNA) DNA: TTTTTTTTTTTTTTTTTTTTTTTTTTTTTTTTTTTTTTTTTTTTTTTTTTTTTTTTTTTTTTTTT	–	–	–	apparent K (half saturation) (PaSSB [3]): 550 ± 70 nM
TTTTTTTTTTTTTTTTTTTTTTTTTTTTTTTTTTTTTTTT (ssDNA) [dT40]	420 ± 80 nM	–	–	–
TTTTTTTTTTTTTTTTTTTTTTTTTTTTTTTTTTTTTTTTTTTTT (ssDNA) [dT45]	–	780 ± 160 nM	100 ± 10 nM	apparent K (half saturation) (StSSB [4]): 440 ± 60 nM
TTTTTTTTTTTTTTTTTTTTTTTTTTTTTTTTTTTTTTTTTTTTTTTTTT (ssDNA) [dT50]	–	–	110 ± 20 nM	apparent K (half saturation) (StSSB [4]): 440 ± 50 nM
TTTTTTTTTTTTTTTTTTTTTTTTTTTTTT (ssDNA) [dT30]	420 ± 60 nM	–	–	–
TTTTTTTTTTTTTTTTTTTTTTTTT (ssDNA) [dT25]	–	1700 ± 250 nM	200 ± 20 nM	–
dT60 (ssDNA) DNA: TTTTTTTTTTTTTTTTTTTTTTTTTTTTTTTTTTTTTTTTTTTTTTTTTTTTTTTTTTTT	–	–	–	apparent K (half saturation) (PaSSB [3]): 810 ± 110 nM; apparent K (half saturation) (KpSSB [7]): 100 ± 10 nM
dT55 (ssDNA) DNA: TTTTTTTTTTTTTTTTTTTTTTTTTTTTTTTTTTTTTTTTTTTTTTTTTTTTTTT	–	820 ± 90 nM	–	apparent K (half saturation) (KpSSB [7]): 100 ± 20 nM
TTTTTTTTTTTTTTTTTTTTTTTTTTTTTTTTTTT (ssDNA) [dT35]	–	950 ± 180 nM	220 ± 30 nM	–
